# Experimental data: patent publication US20020115592A1, “Pharmaceutical compositions containing insulin” (Provalis UK Limited, priority 1998, published 2002)
# Tests used:
# [1] = Appearance on addition of Akoline to the insulin solution; format: physicochemical; conditions: Insulin 7 mg
# [2] = Dissolution of insulin (optionally with aprotinin) in non-aqueous hydrophilic solvent/cosolvent; format: physicochemical; conditions: Insulin 7 mg
# [3] = Gly (20 μl), PEG/L-lactic (20 μl/10 mg)
# [4] = Gly (20 μl), PEG/NaAc (20 μl/10 mg)
# [5] = Gly (40 μl), Acetic acid (10 mg)
# [6] = Gly (40 μl), L-lactic acid (10 mg)
# [7] = PD (40 μl), Na-L lactate (10 mg)
# [8] = PEG (25 μl), DL-lactic acid (25 μl)
# [9] = PEG (50 μl), Glycerol/TEA (50 μl/10 gl)
# [10] = PG (40 μl), Acetic acid (10 mg)
# [11] = PG (40 μl), Caproic acid (10 mg)
# [12] = PG (40 μl), Citric acid (10 mg)
substance,measurement,setting,value
Insulin,Addition of Akoline,[1]; [3],Turbid
same,Addition of Akoline,[1]; [4],Clear
same,Addition of Akoline,[1]; [5],Opaque
same,Addition of Akoline,[1]; [6],Turbid
same,Addition of Akoline,"[1]; Gly (40 μl), NaAc (10 mg)",Translucent
same,Addition of Akoline,"[1]; PD (20 μl), benz. SO3H (10 mg)",Clear
same,Addition of Akoline,"[1]; PD (40 μl), L-lactic (10 mg)",Turbid
same,Addition of Akoline,[1]; [7],Clear
same,Addition of Akoline,"[1]; PD (40 μl), NaAc (10 mg)",Clear
same,Addition of Akoline,"[1]; PEG (20 μl), L-lactic (10 mg)",Translucent
same,Addition of Akoline,"[1]; PEG (20 μl), NaAc (10 mg)",Clear
same,Addition of Akoline,[1]; [8],Cloudy
same,Addition of Akoline,"[1]; PEG (25 μl), DL-lactic acid (25 μl), (Akoline/POE)",Suspension
same,Addition of Akoline,"[1]; PEG (40 μl), camitine (10 mg)",Clear solution
same,Addition of Akoline,[1]; [9],Suspension
same,Addition of Akoline,[1]; [10],Translucent
same,Addition of Akoline,[1]; [11],Translucent
same,Addition of Akoline,[1]; [12],Translucent
same,Soluble?,[2]; [3],Yes
same,Soluble?,[2]; [4],Yes
same,Soluble?,[2]; [5],Yes
same,Soluble?,[2]; [6],Yes
same,Soluble?,"[2]; Gly (40 μl), NaAc (10 mg)",Yes
same,Soluble?,"[2]; PD (20 μl), benz. SO3H (10 mg)",Yes
same,Soluble?,"[2]; PD (40 μl), L-lactic (10 mg)",Yes
same,Soluble?,[2]; [7],Yes
same,Soluble?,"[2]; PD (40 μl), NaAc (10 mg)",Yes
same,Soluble?,"[2]; PEG (20 μl), L-lactic (10 mg)",Yes
same,Soluble?,"[2]; PEG (20 μl), NaAc (10 mg)",Yes
same,Soluble?,[2]; [8],Yes
same,Soluble?,"[2]; PEG (25 μl), DL-lactic acid (25 μl), listed as with Akoline/POE",Yes
same,Soluble?,"[2]; PEG (40 μl), camitine (10 mg)",Yes
same,Soluble?,[2]; [9],Yes
same,Soluble?,[2]; [10],Yes
same,Soluble?,[2]; [11],Yes
same,Soluble?,[2]; [12],Yes
